Test results reported in article PMC8948278 (2022).

Biological target: Recombinant SARS-CoV-2 S trimer protein (ACRO Biosystems SPN-C52H9) (SARS-CoV-2, UniProt P0DTC2)
Experiment: SPR

B1: KIH format bivalent MW01 (MW01/KIH) (antibody, V domains shown)
VH: EVQLVQSGAEVKKPGSSVKVSCKASGGTFSSFSISWVRQAPGQGLEWMGRIIPVLGIANYAQEVQGRVTITADKSTSTAYMELSSLRSEDTAVYFCTTDRFVEPATGPFFDYWGQGTLVTVSS
VL: EIVMTQSPATLSVSPGERATLSCRASQSVSSNLAWYQQKPGQAPRLLIYGASTRATGIPARFSGSGSGTEFTLTISSLQSEDFAVYYCQQYSNWLTFGGGTKVEIK
koff: 0.000408 s⁻¹
